Data from paper PMC4315616.

Legend:
[1] = molecular target: T1, SNV nucleocapsid protein N wild type (SNVN) (Sin Nombre hantavirus, UniProt Q89462 1-428); experiment: BLI
T1 sequence: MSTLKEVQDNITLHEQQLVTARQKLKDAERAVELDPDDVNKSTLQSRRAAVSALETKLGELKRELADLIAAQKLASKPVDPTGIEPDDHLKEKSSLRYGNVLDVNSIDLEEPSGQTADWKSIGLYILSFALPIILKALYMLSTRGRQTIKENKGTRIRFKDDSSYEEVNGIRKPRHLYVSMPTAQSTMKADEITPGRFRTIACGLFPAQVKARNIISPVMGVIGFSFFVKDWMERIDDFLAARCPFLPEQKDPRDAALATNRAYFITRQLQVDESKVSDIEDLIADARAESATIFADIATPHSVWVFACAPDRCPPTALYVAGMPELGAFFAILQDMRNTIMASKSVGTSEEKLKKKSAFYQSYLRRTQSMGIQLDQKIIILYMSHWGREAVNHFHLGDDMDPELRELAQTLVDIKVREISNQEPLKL

[2] = molecular target: T1, SNV nucleocapsid protein N wild type …; experiment: filter binding
[3] = molecular target: T1, SNV nucleocapsid protein N wild type …; experiment: filter binding; remark: listed apart in the source
[4] = molecular target: T1, SNV nucleocapsid protein N wild type …; experiment: BLI; remark: listed apart in the source

Row | Binder | Kd [1] | binding signal [2] | Kd [3] | Kd [4]
1 | GAUAUGUGAG (ssRNA) [uncapped decameric RNA] | 477 ± 6.8 nM | ~4 fold lower affinity than capped | – | –
2 | GAUAUGUGAG (ssRNA, 5' mRNA cap (enzymatic, Cell Script)) [capped decameric RNA] | 106 ± 5.7 nM | – | 120 ± 0.6 nM | 107.8 ± 0.7 nM
